We go through three molecules from article PMC10164912, “Exploration of O-GlcNAc transferase glycosylation sites reveals a target sequence compositional bias” (The Journal of Biological Chemistry, 2023).

First the molecules themselves.
T1: TPR region of OGT (OGT-TPR, aa 2-474) not fused to SUMO (human, UniProt O15294 2-474)
T1 construct: O-GlcNAc transferase (OGT), human ncOGT (longest isoform, 1-1046, 13 TPR repeats), tetratricopeptide repeat region, residues 2-474; Unlabelled; this was not measured here; also called OGT-TPR with the SUMO tag removed
T1 sequence (looked up): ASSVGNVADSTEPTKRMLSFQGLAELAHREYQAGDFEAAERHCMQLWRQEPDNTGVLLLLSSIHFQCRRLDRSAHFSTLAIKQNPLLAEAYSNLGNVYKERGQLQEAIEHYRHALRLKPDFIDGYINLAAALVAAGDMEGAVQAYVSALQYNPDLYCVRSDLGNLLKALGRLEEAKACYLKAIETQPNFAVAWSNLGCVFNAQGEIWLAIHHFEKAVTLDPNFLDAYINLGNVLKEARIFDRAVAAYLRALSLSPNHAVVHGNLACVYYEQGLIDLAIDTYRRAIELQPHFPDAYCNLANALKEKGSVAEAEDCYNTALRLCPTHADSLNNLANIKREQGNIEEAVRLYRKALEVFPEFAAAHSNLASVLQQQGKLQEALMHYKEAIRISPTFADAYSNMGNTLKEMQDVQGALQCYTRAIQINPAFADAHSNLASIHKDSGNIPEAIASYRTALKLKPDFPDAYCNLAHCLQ

B1: Mut-F FUS N-terminal low-complexity region (LCRN), aa 1-214 (domain or fragment, human, UniProt P35637 1-214, looked up)
chain: MASNDYTQQATQSYGAYPTQPGQGYSQQSSTPYAQASYSTYSPSTTTSAYGQSSYSSYGQSQNTGYATTSTPQAYPSTAPYATSPSSQSSYGQQSSYPAYTQQPAPTTTSASYATSSQSSSYGQPQSGSYSQQPSYGGQQQSYGQQQSYNPPQGYGQQNQYNSSSGGGGGGGGGGNYGQDQSSMSSGGGSGGGYGNQDQSGGGGSGGYGQQDRG
notes: FUS (fused in sarcoma), human, N-terminal low-complexity region, aa 1-214, with the combined mutations of Mut-A, Mut-B and Mut-C; 15N-labelled for NMR; also called FUS Mut-F; Mut-F FUS LCRN
B2: WT FUS N-terminal low-complexity region (LCRN), aa 1-214 (domain or fragment, human, UniProt P35637 1-214, looked up)
chain: MASNDYTQQATQSYGAYPTQPGQGYSQQSSQPYGQQSYSGYSQSTDTSGYGQSSYSSYGQSQNTGYGTQSTPQGYGSTGGYGSSQSSQSSYGQQSSYPGYGQQPAPSSTSGSYGSSSQSSSYGQPQSGSYSQQPSYGGQQQSYGQQQSYNPPQGYGQQNQYNSSSGGGGGGGGGGNYGQDQSSMSSGGGSGGGYGNQDQSGGGGSGGYGQQDRG
notes: FUS (fused in sarcoma), human, N-terminal low-complexity region, aa 1-214; 15N-labelled for NMR; also called WT FUS LCRN; FUS LCRN
B3: TPR region of OGT (OGT-TPR, aa 2-474) fused to a SUMO tag (domain or fragment, human, UniProt O15294 2-474, looked up)
chain: T1 sequence (looked up)
notes: O-GlcNAc transferase (OGT), human ncOGT (longest isoform, 1-1046, 13 TPR repeats), tetratricopeptide repeat region, residues 2-474; Unlabelled; this was not measured here; also called SUMO-OGT-TPR; SUMO-fused OGT-TPR

Holding throughout (conditions): both partners purified
Test [1] addresses T1, TPR region of OGT (OGT-TPR, aa 2-474) …. Put plainly: NMR titration; 1H-15N HSQC of 15N-labelled FUS LCRN (WT or Mut-F) without and with OGT-TPR whose SUMO tag was removed; the samples with OGT-TPR phase separated, no quantitative comparison.
The target in test [2] is B2. Kind of test: NMR titration; 1H-15N HSQC of 20 uM 15N-labelled FUS LCRN (WT or Mut-F) without and with 32 uM unlabelled SUMO-OGT-TPR; 600 MHz, 5 °C, 40 mM KPO4, 125 mM NaCl, 0.5 mM EDTA, 0.5 mM benzamidine, 5 mM DTT, 10% D2O, pH 7.2; peak intensity ratios plus OGT-TPR/apo.
The target of test [3] is B1. Described as above.

In the case of B1, the binding result in test [1] is “binds”.

B2: the binding result in test [1] is recorded as “binds”.

Take B3: the “average peak intensity ratio (plus OGT-TPR/apo)” value was 0.48 in test [2] and 0.36 ± 0.22 in test [3].
